{"source": "the RNAGym collection of RNA variant scans (doi:10.1021/acssynbio.7b00057)", "parents": {"B1": {"name": "Pistol ribozyme (parent)", "chain": "GGGUCGUUGUUCCAUAAUCGCGUGGAUAUGGCACGCAAGUUUCUACCGGGCACCGUAAAUGUCCGACUGGAGCCGUUCGGGCGGCUAUAAACAGACCUCAGGCCCGAAGCGUGGCGGCACCUGCCGCCGGUGGUAAAAAAGAUCGGAAGAGCACACGUCU"}}, "data": [{"variants_of": "B1", "test": "aptazyme ON/OFF ratio, guanine; higher = stronger switching; co-transcriptional cleavage with and without guanine", "values": [{"variant": "U7G U8A G9U U10G U11A C13G", "aptazyme ON/OFF ratio": 1.06}, {"variant": "U7C G9C U11C C12G C13A", "aptazyme ON/OFF ratio": 1.04}, {"variant": "G9A U10A C12G C13U", "aptazyme ON/OFF ratio": 1.57}, {"variant": "U7G U8G G9A U11G C12U C13A", "aptazyme ON/OFF ratio": 1.23}, {"variant": "U7C U8G G9U U11C", "aptazyme ON/OFF ratio": 1.13}, {"variant": "U8C G9A U10C U11G C12U C13A", "aptazyme ON/OFF ratio": 1.42}, {"variant": "U7C U8A G9C U10G U11C", "aptazyme ON/OFF ratio": 1.1}, {"variant": "U7G U8C U11A C12A C13G", "aptazyme ON/OFF ratio": 1.1}, {"variant": "U7C U8C G9C U10C U11A C13A", "aptazyme ON/OFF ratio": 1.14}, {"variant": "U7A U8C U10C U11C C13U", "aptazyme ON/OFF ratio": 1.01}, {"variant": "U7A U8A G9A U10G C13U", "aptazyme ON/OFF ratio": 1.34}, {"variant": "G9C U10C C12U", "aptazyme ON/OFF ratio": 1.12}, {"variant": "U8G G9C U10C U11G C12G C13U", "aptazyme ON/OFF ratio": 1.08}, {"variant": "U7C U11G C12U C13A", "aptazyme ON/OFF ratio": 1.13}, {"variant": "U8C U10C U11A C13A", "aptazyme ON/OFF ratio": 1.32}, {"variant": "U7G U10A U11A C12U", "aptazyme ON/OFF ratio": 1.16}, {"variant": "U7G U8A G9U U10A U11G C12A C13A", "aptazyme ON/OFF ratio": 1.09}, {"variant": "G9C U10G U11C", "aptazyme ON/OFF ratio": 1.06}, {"variant": "U7C U8G G9U U10G U11A C12A C13U", "aptazyme ON/OFF ratio": 1.26}, {"variant": "U7G U8C U10G U11C", "aptazyme ON/OFF ratio": 2.14}, {"variant": "U8A G9U C12A", "aptazyme ON/OFF ratio": 1.22}, {"variant": "U7A G9A U11C C12U", "aptazyme ON/OFF ratio": 1.17}, {"variant": "U7A U8G G9C U10G U11A", "aptazyme ON/OFF ratio": 1.07}, {"variant": "U7C G9C U10G U11A C12G C13A", "aptazyme ON/OFF ratio": 1.13}, {"variant": "U7G U8C U11G C12A C13U", "aptazyme ON/OFF ratio": 1.19}, {"variant": "G9C U10G U11G C12A", "aptazyme ON/OFF ratio": 1.18}, {"variant": "U7A U8A G9A U10C U11C C12A C13G", "aptazyme ON/OFF ratio": 1.04}, {"variant": "U7A U8A U10A U11C", "aptazyme ON/OFF ratio": 0.996}, {"variant": "U7C U8G U10G U11A", "aptazyme ON/OFF ratio": 1.17}, {"variant": "U7C U8G U10C C12U C13U", "aptazyme ON/OFF ratio": 2.3}, {"variant": "U7C U8G C12G", "aptazyme ON/OFF ratio": 1.29}, {"variant": "U8A G9A U10G C12U C13U", "aptazyme ON/OFF ratio": 1.41}, {"variant": "U7A U8G G9A U10A U11G C12G C13A", "aptazyme ON/OFF ratio": 1.38}, {"variant": "U7C U8A G9A U11A C12U C13G", "aptazyme ON/OFF ratio": 1.18}, {"variant": "U7G U8C G9C U10C U11G C12G C13A", "aptazyme ON/OFF ratio": 1.1}, {"variant": "U7C U8C G9A U10G U11C C13U", "aptazyme ON/OFF ratio": 1.17}, {"variant": "U7A U10G U11A C12U", "aptazyme ON/OFF ratio": 1.13}, {"variant": "U11G C13U", "aptazyme ON/OFF ratio": 1.06}, {"variant": "U7A U8G G9A U10C U11A C12U C13G", "aptazyme ON/OFF ratio": 1.06}, {"variant": "U7C U8A U10A U11A C12G C13U", "aptazyme ON/OFF ratio": 1.23}, {"variant": "U7G U8A G9C U10A U11C C12A C13G", "aptazyme ON/OFF ratio": 1.01}, {"variant": "U7A U8G G9U U10C U11A C12G C13A", "aptazyme ON/OFF ratio": 1.27}, {"variant": "U7G U8C U11A C12G", "aptazyme ON/OFF ratio": 1.12}, {"variant": "U7G G9U C13A", "aptazyme ON/OFF ratio": 1.38}, {"variant": "U8C G9U U10A C13U", "aptazyme ON/OFF ratio": 1.37}, {"variant": "U8C G9U U10G C12G C13A", "aptazyme ON/OFF ratio": 1.3}, {"variant": "U7G G9A U10A U11C C12G C13U", "aptazyme ON/OFF ratio": 1.18}, {"variant": "U7C G9A U10G U11A C12G C13A", "aptazyme ON/OFF ratio": 1.15}, {"variant": "U7G U8C G9U U11G C12G", "aptazyme ON/OFF ratio": 1.34}, {"variant": "U7C U8G G9C U10A U11A C12A C13A", "aptazyme ON/OFF ratio": 1.13}, {"variant": "U8C C12G C13G", "aptazyme ON/OFF ratio": 1.15}, {"variant": "U7A U8G G9A U11G C13A", "aptazyme ON/OFF ratio": 1.39}, {"variant": "U7G G9C U10C U11A C13A", "aptazyme ON/OFF ratio": 1.24}, {"variant": "U7C G9A U10A U11C C12G", "aptazyme ON/OFF ratio": 1.35}, {"variant": "U7G G9U U10G U11G C12G C13G", "aptazyme ON/OFF ratio": 1.17}, {"variant": "U7C U8G G9C U11C C12A C13A", "aptazyme ON/OFF ratio": 1.12}, {"variant": "U7G U10G C12G C13A", "aptazyme ON/OFF ratio": 1.21}, {"variant": "U7G U8C G9U U11C C13A", "aptazyme ON/OFF ratio": 1.38}, {"variant": "U8G G9U U10G U11G C12A", "aptazyme ON/OFF ratio": 1.06}, {"variant": "U7G U8A G9A U10C U11G C12A C13U", "aptazyme ON/OFF ratio": 1.13}, {"variant": "U7A U8A G9C U10G C12A C13A", "aptazyme ON/OFF ratio": 1.18}, {"variant": "U8C U10G U11A C12G C13G", "aptazyme ON/OFF ratio": 1.15}, {"variant": "U7C U8G G9U U10C U11C C12A", "aptazyme ON/OFF ratio": 1.07}, {"variant": "U7A U8G G9C U11C C12U C13G", "aptazyme ON/OFF ratio": 1.38}, {"variant": "U7G G9A U10G C12A", "aptazyme ON/OFF ratio": 1.09}, {"variant": "U8C G9U U10A U11C C13A", "aptazyme ON/OFF ratio": 1.09}, {"variant": "U8C G9A U10C U11C C12U", "aptazyme ON/OFF ratio": 1.08}, {"variant": "U7G U8G G9A U11A C12U C13A", "aptazyme ON/OFF ratio": 1.15}, {"variant": "U7A G9A U10A U11C C13U", "aptazyme ON/OFF ratio": 1.06}, {"variant": "U7C U8C G9A U10A U11A C12G C13U", "aptazyme ON/OFF ratio": 1.15}, {"variant": "U7A U8G G9A U10G C12A C13G", "aptazyme ON/OFF ratio": 1.13}, {"variant": "U7A U8G G9A U10C C12U C13G", "aptazyme ON/OFF ratio": 1.13}, {"variant": "U7G U8A G9U C13G", "aptazyme ON/OFF ratio": 1.06}, {"variant": "U7A U8C G9C U10A U11G C12U C13G", "aptazyme ON/OFF ratio": 1.14}, {"variant": "U7G U8C G9A U10A U11C C12A C13G", "aptazyme ON/OFF ratio": 1.25}, {"variant": "U7C U8G G9A U10A U11G C12G C13A", "aptazyme ON/OFF ratio": 1.19}, {"variant": "U7G U8A G9C U11G C12G", "aptazyme ON/OFF ratio": 1.04}, {"variant": "U7G U8A G9A U10G U11G C12U C13G", "aptazyme ON/OFF ratio": 1.18}, {"variant": "U7G U8C G9C C12G C13G", "aptazyme ON/OFF ratio": 1.12}, {"variant": "U7G U8A G9A U10C U11A C12U C13G", "aptazyme ON/OFF ratio": 1.03}, {"variant": "U7C U8A G9A U10C U11G C12U C13A", "aptazyme ON/OFF ratio": 1.17}, {"variant": "U7A U8C G9U U10A U11G C12A", "aptazyme ON/OFF ratio": 1.07}, {"variant": "U7C U8A G9A U10C U11A C12G C13A", "aptazyme ON/OFF ratio": 1.12}, {"variant": "U7C U8G G9C U10G U11A C12U C13A", "aptazyme ON/OFF ratio": 1.38}]}]}
